Data on 3 molecules can be found in article PMC3457981, “The Role, Interaction and Regulation of the Velvet Regulator VelB in Aspergillus nidulans”.

For the data set, the target named is T1, GST-AbaA (Aspergillus nidulans, UniProt P20945 1-588).
T1 sequence: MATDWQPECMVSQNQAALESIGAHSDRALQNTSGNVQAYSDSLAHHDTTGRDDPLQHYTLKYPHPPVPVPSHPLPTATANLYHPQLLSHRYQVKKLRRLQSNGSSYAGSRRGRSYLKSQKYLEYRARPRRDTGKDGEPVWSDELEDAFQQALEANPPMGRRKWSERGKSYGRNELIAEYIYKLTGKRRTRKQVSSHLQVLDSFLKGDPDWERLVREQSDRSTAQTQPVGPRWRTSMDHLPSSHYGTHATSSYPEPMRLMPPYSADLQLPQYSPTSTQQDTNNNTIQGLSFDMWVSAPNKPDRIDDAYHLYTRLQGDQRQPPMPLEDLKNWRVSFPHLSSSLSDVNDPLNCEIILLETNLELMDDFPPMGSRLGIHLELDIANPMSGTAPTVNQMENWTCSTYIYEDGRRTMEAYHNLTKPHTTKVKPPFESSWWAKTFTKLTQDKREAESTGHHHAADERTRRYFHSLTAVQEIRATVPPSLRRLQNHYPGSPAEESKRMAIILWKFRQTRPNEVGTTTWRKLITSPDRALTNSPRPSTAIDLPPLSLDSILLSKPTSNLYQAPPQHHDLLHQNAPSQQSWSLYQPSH
The data set is described as follows: EMSA; 6% glycerol, 12 mM HEPES-KOH pH 7.6, 4 mM Tris-HCl pH 8.0, 1 mM EDTA, 0.5 mM DTT, 0-12 ug poly(dI-dC), ~10 ng probe in 24 ul; RT, 20 min; 6% PAGE, TBE. The settings on record: protein: recombinant; tags: N-terminal GST (pGEX-5X-1); label: 32P (5' end, T4 PNK); blunt.

B1: velB EMSA probe 1 (dsDNA)
DNA 1: CAGCTCCATTCCGCACGGTCATTCC
DNA 2: GGAATGACCGTGCGGAATGGAGCTG
Regarding B1, the binding result is given as “binds”.

B2: vosA EMSA probe 3 (dsDNA)
DNA 1: GTGGTTCCTTACCTCATTCCCGACCTTTTTTGCC
DNA 2: GGCAAAAAAGGTCGGGAATGAGGTAAGGAACCAC
On to B2, for which the binding result is reported as “binds”.

B3: velB EMSA probe 2 (dsDNA)
DNA 1: AGCTCCAGCTCCATTCCGCACGGTCATTCCGTTCTCGGCG
DNA 2: CGCCGAGAACGGAATGACCGTGCGGAATGGAGCTGGAGCT
Turning to B3, the binding result is on record as “binds”.
